From a protein production outcome set (Wang et al. 2014) come the findings set out here.

This data set is described as follows: label from the status in PepcDB records.
Turning to “MQNLSLQKALKKPEVKTLLQQLGDSLGKNFAIFDIGGHCLWGKAQDSQPKVDIYCHQVLMGTITGEFTEHSAEAIAAMLSYIVQTEYEKKQLAKDTLQKYEEVVFLSQFANAVATCTGLQELIEVIRAEIRQVISVDEIFLYLYDQSQDSLTPLLYKTEESLQNFKAIEKIVERVLKLNQVEVIDDIQNDQDYLNQPSKIRSLLCYSLTVQNSIIGVLGLAHYQVKHFDSSDLNLFSTLTGQVAAAIRTAQYYETIKNYSQTLEIRVKERTMELEFAKQQLEQVNQRLKHLAIYDELTQIPNRRYFTSYLEQEWRQCLRQKSPISLILCDVDYFKNYNDLYGHQMGDKCLQSVAKVIQNALKRPSDVLARYGGEEFIVILPYTDQSGAYTVGQRIHHCLAEAQISHADSPTSRYLTISLGIGTTVPLLHYHPSDLIKIADQALYAAKAAGRNQTKLKTLSFQCS”, the protein production entry is “failed”.

For “MAQQNAEHIADWRGQSGERWAAYQARLDAMMAPFGQAAIEAAAPTTGERVLDVGCGAGASSRDLAARVGAEGHVLGVDISEPLIERARALAPQDMSVVFRVTDASRAELPDGAFDILFSRFGVMFFNDPTGAFAHMRRALKPGGRAAFVCWRGVTENDWMRLPMGAMKGILPSMTPPGPEAPGPFSFGDQERVERILTKAGFTDIAIEPFDASVSFGEGATRDAALDDAVNMTLEVGPLSRVLADQPDDIRDRASVAVRAALSGCPGERSVMINGATWIVTARNPAS”, the protein production entry is reported as “failed”.

For the sequence “MSPPARKLDPWTLLLWLGLAAVSLVALYSTTHGPAAEYIGPGVQDNFARQFLWIGVSIAGIAATLLVPVRFLRYAAYPAYAATLVLLVLCLVMGVEVHGTRAWLALGPLRLQVSELAKVGTVLAVAQLLSERHTRAGQDLSFALKAAGLIVAPALLVILQNDLGTALVFFGLVPIMLFWSGLSLSVLLLMVSPAIAGYFALVSTPAALGFAVLFTGGLWAYSGRRSIAALAATFTAGVTALISFVLRKILQPYQVDRLLSFTNPGAEQFRQGVGFHLVQSKAALYSGGIWGTGFMQGPQTQGAYVPEQTTDFIFSVVAEEFGLVGSLVVLGLLAALLLRLIKLGADVKHPFGSIVAAGAVGVYLIHIFINIGMVTGMLPVIGLPLPFLSYGGSAMLANTALLAIVLNTHMRREDLSIYGY”, the protein production result is listed as “failed”.

Turning to “MKIYASDEQYKQMNEELDERVESLVSELTLDEKIRLMCQYQEAVPRLGIGKYKHGTEGAHGVAWLGKATVFPQNIGLGCTWNEELMKKIGDVIAEEARVYYQENPEQNGLTIWAPTVDMERDPRWGRTEEAYGEDPYLTGKLTTELIKGMQGDHPFYLKTAATLKHFLANNNEEARTECSVSIDPRNLREYYLKAFEPQVKEGHVQCVMTAYNAVNGTLCNMNPDVNAILKEEWGLQGFVVSDACDVVGSVDDHQFVESYAEAVALSIKNGIDNVTDDEKIIHRAIGDALEQGLLSEEDLDQALKRVFRVRIRLGEFDQENKNPYATVAKEKLCA”, the protein production result was “failed”.

Turning to “MVSYPVWDSAMFAYTISSHILLVTLTLGLALLITISEFIGIKYKNRYFLTLARKASTALVINFAVGTASGIFMAVELYLFWPEFMKVVGAVAMSAFYAEVFAFLLESITLMMYVYFWDNFKNRWNHWLTSIGVLVGTGGSAALITDVNAWMNTPEGSFNIPYYLKTGIITDVNPWKVFWEPSTFAEQFHMYAVEYFAGSMMLLGYFAYKYLRSSGADERLVYSAGLKILSVIAIIDIIIVGASGSNELDTLLVVEPLKYAALEQDMVPVTYGAPEHIFGIIINGHPAYYVNLPLAQSLLAYPFTFGHGYIPGLSSYPSSVWPPSFVHDTLDLMVGFGLLMGFFWLIVVIMYFMKKDPLNKRSVLKALMFFSGMAVYTMEDGWYTAEVGRVPGIILYDKPPYYVMTIGQAASTSPVVFPLGMAIIIFYIVLIPLTLYFMAKVLKVSNIEDDLRHADDDLSKVGKSTPAGMR”, the protein production entry was “failed”.

“MSEANSGPGRVTREQRGHLFLIGLDRAGKRNAFDSAMLADLALAMGEYERSEESRCAVLFAHGEHFTAGLDLMELAPKLAASGFRYPDGGVDPWGVVQPRRSKPLVVAVQGTCWTAGIELMLNADIAVAARGTRFAHLEVLRGIPPLGGSTVRFPRAAGWTDAMRYILTGDEFDADEALRMRLLTEVVEPGEELARALEYAERIARAAPLAVRAALQSAFQGRDEGDDAALSRVNESLAALIGSEDVREGVLAMV”: the protein production entry was “not failed”.

For “MDCRKMARFSYSVIWIMAISKVFELGLVAGLGHQEFARPSRGYLAFRDDSIWPQEEPAIRPRSSQRVPPMGIQHSKELNRTCCLNGGTCMLGSFCACPPSFYGRNCEHDVRKENCGSVPHDTWLPKKCSLCKCWHGQLRCFPQAFLPGCDGLVMDEHLVASRTPELPPSARTTTFMLVGICLSIQSYY”, the protein production result is on record as “failed”.

For the sequence “MAGKKVVITIGRQYGSGGADTGRRLAEELGFGFYDKNILRMNSDESGIKESYFHLADEKAGNKLLYKIISSLTPEKGAPSFGSDLISADNLFRFQSEVIRKLAAEESCVIIGRCANYVLDGMEGLLRVYLYADIEVREARIREKDLYDEKEVLKNIKRIDRERRDYHRYYTGRDWQELDNYDLVINTTHIGVDGAVAVIKNYLTVMGYDLEKDFH”, the protein production result is “not failed”.

With “MEEEMKKKVSRGELGGEAQNCPRCESPNTKFCYYNNYSLSQPRYFCKSCRRYWTKGGTLRNVPVGGGCRRNKRSSSSAFSKNNNNKSINFHTDPLQNPLITGMPPSSFGYDHSIDLNLAFATLQKHHLSSQATTPSFGFGGDLSIYGNSTNDVGIFGGQNGTYNNSLCYGFMSGNGNNNQNEIKMASTLGMSLEGNERKQENVNNNNNNSENPSKVFWGFPWQMTGDSAGVVPEIDPGRESWNGMVSSWNNGLLNTPLV”, the protein production result is “not failed”.

For “MVEIIPVSTTLELRAADESHVPALHQLVLKNKAWLQQSLDWPQYVTSQEETRKHVQGNILLHQRGYAKMYLIFCQNEMAGVLSFNAIEPINKAAYIGYWLDESFQGQGIMSQSLQALMTHYARRGDIRRFVIKCRVDNQASNAVARRNHFTLEGCMKQAEYLNGDYHDVNMYARIIDAD”, the protein production result is “not failed”.

As for “MDKLKVAELFAGVGGFRLGLENTKEKIFDVTWANQWEPSKKIQHAFDCYNSRFITGEHVNKDIALISDEEIANTKADMVVGGFPCQDYSVARSLSGELGIQGKKGVLFWQIIRFIQNTYPKYLLLENVDRLLKSPSSQRGRDFGVMLSTLNELGYNVEWRVINAADYGNAQRRRRVFIFGYKQDLEHHHHHH”, the protein production result is given as “not failed”.

As to “MERHQHLLSEYQQILTLSEQMLVLATEGNWDALVDLEMTYLKAVESTANITISSCSSLMLQDLLREKLRAILDNEIEIKRLLQLRLDRLSDLVGQSTKQQAVNNTYGQFPDHALLLGETQ”, the protein production result is given as “not failed”.

As for “MPWLQVRLAITPEQAETYEDALLEVGAVSVTFMDAEDQPIFEPDLGTTPLWSRTHLLALFEADTDETALLAHLALLTGGDLPEHHVEEIADQDWERSWMDNFQPMRFGRRLWIVPSWHAAPEPDAVNLLLDPGLAFGTGTHPTTALCLEWLDGQELAGRQVLDFGCGSGILAIAALLLGAERAVGTDIDPQALEASRDNASRNGIEPARFPVYLPADLPQRQADVLVANILAGPLVSLAPQLTGLVRPGGLLALSGILAEQAEEVRAAYSAHFDLDPTAEREGWIRISGRRRAD”, the protein production entry is recorded as “failed”.

With “MNGASLCNSVLLHSHSLSRFQSSSSSCSVYLISSARTTSKYISISHRIRQSFREVIEKRSNGFCSFAVNKRRSGDSVIVESDDDDEEDDEDWGEFDGEDEGEEEEEDEGEFLPMDKMKKWLEKKPRGFGLGKKYETLIEDKLLDEIEQSWKAQAANLNKLKNDPLKSQQLKRDDNLLKGTGETQIGFRVRVTNLPKKKNVHRDLKVAFKEVSGVLSITPAVSGNKKTKDPVCKGFAHVDFKTEIDANRFVKQFTGQSLAFGKVIKQIKCQVVEFTSDDSVSKEVYLDNGFKVQKLPYSGLEGDSSADVVEEEVLLGSGEESDDSEEEVDEREVEDDERNHISSSIESSPIEMTRDSNTKLKFEKQVVKREIREHEELETPLVSFQVNKSEEAAAETHLDDEQSEEAVAETLLNDELDGDDEEEVAEDNLEPLNSSLSSSEENRVDRIRRLEQKLLGKEKLLGGGVGFDKPEAKPARVEGKKKEKKKKTKILVKGQAKKGTKIEIPGSSKR”, the protein production entry is recorded as “failed”.

Consider “MAEVLVYVDHVDGAVRKPTLELLTLARRIGEPVALALGSGAENTAAALAEHGAGKVLTHDAAEYADYLVVPKVDALQAAYEAVSPAAVLIPSSAEGKEIAARLAVRIGSGIITDAVDLEAGDEGPVATQSAFAASFTTKSRVSKGTPVITVKPNSAPVEAAPAAGAVEALSVSFSDKATGTKVTGRTPRESTGRPELTEAAIVVSGGRGVNGAENFAIIEALADSLGAAVGASRAAVDAGWYPHSNQVGQTGKAVSPQLYIASGISGAIQHRAGMQTSKTIVAINKDAEAPIFDLVDYGVVGDLFDVVPQLTDEVKTRKG”, for which the protein production result is recorded as “failed”.

Take “MKKRILFVSAIAIQCMMTSMALANDITSQQTAENIPFEKNQLSVRLNGEQYRSAFQIDLSDPNLILTIDTDLIPEEDIDALLPELNDSEEAQVSAFNEPKSLALRIEAKEKAANGDFVGALALLNEAEALTENPAKVLSMKGSVHYKLNQVELAIVSWKKALELDPSLTEVSDIIQWLEK”: the protein production entry is recorded as “failed”.

For “MTIRISGKSISIGEALRSRVSERTEEVLRKYFDGNYSGHFTLSKDGFGFRTDCALHLDSGITLEAESNAADAYVSADQALVQIEKRLRRYKSRLKDRSSRKAHAEANALAELSTPVDAASYVIEAPGDEEHHEDAYNPVIIAEATTAMKRLSVSEAVVELDLTGAPVVVFLHGSSGRVNIIYRRADGNIGWIDPPVLNGAN”, the protein production result was “failed”.

With “MDMEQRERWATKIGLILAMAGNAIGLGNFVRFPTQVAGNGGGAFMVPYFLALFLLGIPVMWVEWVQGRYGGKYGHGTLGPTFYLMARESLKPRSALWFGLIGGALAFATTTLLNSYYLHLIGWSAAYSWFSITGAYYGKNTAQFFSQYLSNHGLVFLFWGITVVLLGIAVGQGVSKGIERWVKVMMPLLYVFAIILVIYVFALGSPLGQPQWSTIKGFEFIWSPNWGYLKDHLWKVMLAASGQIFFTLSLGMGIIQNYASYLGPKDDVALSGLATVSLNEFAEVVLGGSIAVPLAVAYAPKIVPPDVLAKGSDAALAWISENFGLGFSYTSLPNIFVQMGTAGRFFGALWFLLLWFAGFTSAIAMYNYLTALLEEDLGIKRSVGTWVVFIIYFLLGIPVVYINGYLDQVDAWISFQLALLALFDIIVSVWLFKPDNFWRELHEGALINVPEFYKWITVIIAPIFIALPLFGTFTDLVSKTLGWPAKIAILTMLTIGAIEAYYAIKKKYGEELEKNEVIIKV”, the protein production result is “failed”.

As to “MIEEYLLRALLASLMVSTLLGLLSPLINVKGVAFLTHATFHALLFGAVLGMILGLIMGDLSLIFWISLLIAIIVVIGIAEMEIRGYSSDTAVGTMAGIIAGLTVLGFGILYKVMASRPYFALSESIVSYLTGEIFLITFDDLTLLVIGGFLVFTIMVIFYRDFLYLSFDPEGLESHGGNVRLYLMLLYFLVGAVGGLIVKTVGLITLQVLAVLPGAIALTISRGIREFVGISLGLTLAIQVSSTFLGYYFNIPPSGLATIFLGTIYGVLALRRKII”, the protein production result is listed as “failed”.

Take “MELREWQSKIAEKIVEALRNNFLVSLQAPTGSGKTLFALYTALKVKPKVAFVVRTHNEFFPVYRELSLHFKDKKYGFLVGKSSACVFSSSDVDAQDIYCNGCEIFNASAVTVTDSPKVSLNKLKEEGKKLGFCPYYSLLETIKTADVILLTYPYLFIPWLRESLDINWEDYVVIVDEAHNIENVSNIEEKKLNKRIIEMAISQSHSQNVKVILERLKENVEKAVYSEDKYILIEKDKLDNILPSNEEIEILSEEYDEIRKIMIKNKTVSRNYLGSILRFFDLVNDEGIRVFSYSGSLIAKYIIPSYFTDILNDEKITYMLMSGTMQPLDYLRNIIGIKRKILYIDAEKVMKKRLTGTYECLISIDVTTTYSLRSEQMARKYASYLLKIFYNSRRHVLAIFPSYEFMRIVSKFLNIRYLAEDTETSIEEIMSNLKKEKTIIMGIARGKLAEGIEIVENGSSLISDVAMVGIPYPPIDDYLKIRVEEISKILKKDISNELISIQALIAVKQSIGRAIRGPTDNATIWLLDKRYDSLWWKKELNCLNARKIKL”: the protein production entry is on record as “failed”.
